Assays:
[1] = molecular target: Human BCMA (human) (UniProt Q02223); experiment: SPR, IgG immobilised, huBCMA analyte, 37 C
[2] = molecular target: T1, cynomolgus monkey BCMA (cynomolgus monkey, UniProt A0A2K5UD97 1-53); experiment: SPR, IgG on chip, cyBCMA analyte, 37C
T1 construct: Soluble analyte in SPR; construct not described; also called cyBCMA; Cyno BCMA
T1 sequence (A0A2K5UD97 entry or part of it): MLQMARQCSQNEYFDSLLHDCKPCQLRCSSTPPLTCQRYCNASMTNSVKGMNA

Binder | Kd [1] [nM] | T½ [1] [min] | koff [1] [s⁻¹] | kon [1] [M⁻¹ s⁻¹] | Kd [2] [nM] | T½ [2] [min] | koff [2] [s⁻¹] | kon [2] [M⁻¹ s⁻¹]
L3.PY/L1.AH/H3.TAQ (antibody, V domains shown, IgG) VH: EVQLLESGGGLVQPGGSLRLSCAASGFTFGSYAMTWVRQAPGKGLEWVSAISGSGGNTFYADSVKGRFTISRDNSKNTLYLQMNSLRAEDTAVYYCTRVSPIAAQMDYWGQGTLVTVSS VL: EIVLTQSPGTLSLSPGERATLSCRASQSVSAHYLAWYQQKPGQAPRLLIYGASSRATGIPDRFSGSGSGTDFTLTISRLEPEDFAVYYCQHYPYPPSFTFGQGTKVEIK | 0.37 | 9.68 | 0.00119 | 3.27e+06 | 1.32 | 3.83 | 0.00302 | 2.28e+06
L3.PY/L1.FF/H2.HA (antibody, V domains shown, IgG) VH: EVQLLESGGGLVQPGGSLRLSCAASGFTFGSYAMTWVRQAPGKGLEWVSAISHAGGNTFYADSVKGRFTISRDNSKNTLYLQMNSLRAEDTAVYYCARVSPIASGMDYWGQGTLVTVSS VL: EIVLTQSPGTLSLSPGERATLSCRASQSVSSFFLAWYQQKPGQAPRLLIYGASSRATGIPDRFSGSGSGTDFTLTISRLEPEDFAVYYCQHYPYPPSFTFGQGTKVEIK | 0.63 | 5.29 | 0.00219 | 3.49e+06 | 1.79 | 2.77 | 0.00417 | 2.33e+06
L3.PY/L1.PH/H3.AQ (antibody, V domains shown, IgG) VH: EVQLLESGGGLVQPGGSLRLSCAASGFTFGSYAMTWVRQAPGKGLEWVSAISGSGGNTFYADSVKGRFTISRDNSKNTLYLQMNSLRAEDTAVYYCARVSPIAAQMDYWGQGTLVTVSS VL: EIVLTQSPGTLSLSPGERATLSCRASQSVSPHYLAWYQQKPGQAPRLLIYGASSRATGIPDRFSGSGSGTDFTLTISRLEPEDFAVYYCQHYPYPPSFTFGQGTKVEIK | 0.52 | 7.27 | 0.00159 | 3.08e+06 | 1.5 | 3.39 | 0.00341 | 2.28e+06
L3.PY/L1.PH/H2.HA (antibody, V domains shown, IgG) VH: EVQLLESGGGLVQPGGSLRLSCAASGFTFGSYAMTWVRQAPGKGLEWVSAISHAGGNTFYADSVKGRFTISRDNSKNTLYLQMNSLRAEDTAVYYCARVSPIASGMDYWGQGTLVTVSS VL: EIVLTQSPGTLSLSPGERATLSCRASQSVSPHYLAWYQQKPGQAPRLLIYGASSRATGIPDRFSGSGSGTDFTLTISRLEPEDFAVYYCQHYPYPPSFTFGQGTKVEIK | 0.49 | 9.99 | 0.00116 | 2.37e+06 | 3.44 | 2.09 | 0.00553 | 1.61e+06
L3.PY/L1.FF/H3.YA (antibody, V domains shown, IgG) VH: EVQLLESGGGLVQPGGSLRLSCAASGFTFGSYAMTWVRQAPGKGLEWVSAISGSGGNTFYADSVKGRFTISRDNSKNTLYLQMNSLRAEDTAVYYCARVSPIYAGMDYWGQGTLVTVSS VL: EIVLTQSPGTLSLSPGERATLSCRASQSVSSFFLAWYQQKPGQAPRLLIYGASSRATGIPDRFSGSGSGTDFTLTISRLEPEDFAVYYCQHYPYPPSFTFGQGTKVEIK | 0.51 | 6.41 | 0.0018 | 3.5e+06 | 1.69 | 2.77 | 0.00416 | 2.46e+06
L3.PY/L1.FF/H3.AQ (antibody, V domains shown, IgG) VH: EVQLLESGGGLVQPGGSLRLSCAASGFTFGSYAMTWVRQAPGKGLEWVSAISGSGGNTFYADSVKGRFTISRDNSKNTLYLQMNSLRAEDTAVYYCARVSPIAAQMDYWGQGTLVTVSS VL: EIVLTQSPGTLSLSPGERATLSCRASQSVSSFFLAWYQQKPGQAPRLLIYGASSRATGIPDRFSGSGSGTDFTLTISRLEPEDFAVYYCQHYPYPPSFTFGQGTKVEIK | 0.46 | 7.51 | 0.00154 | 3.32e+06 | 1.51 | 3.51 | 0.00329 | 2.18e+06
L3.PY/L1.FF/H2.LT (antibody, V domains shown, IgG) VH: EVQLLESGGGLVQPGGSLRLSCAASGFTFGSYAMTWVRQAPGKGLEWVSAISLTGGNTFYADSVKGRFTISRDNSKNTLYLQMNSLRAEDTAVYYCARVSPIASGMDYWGQGTLVTVSS VL: EIVLTQSPGTLSLSPGERATLSCRASQSVSSFFLAWYQQKPGQAPRLLIYGASSRATGIPDRFSGSGSGTDFTLTISRLEPEDFAVYYCQHYPYPPSFTFGQGTKVEIK | 0.51 | 6.92 | 0.00167 | 3.3e+06 | 1.56 | 3.38 | 0.00341 | 2.19e+06
L3.PY/L1.PH/H3.TAQ (antibody, V domains shown, IgG) VH: EVQLLESGGGLVQPGGSLRLSCAASGFTFGSYAMTWVRQAPGKGLEWVSAISGSGGNTFYADSVKGRFTISRDNSKNTLYLQMNSLRAEDTAVYYCTRVSPIAAQMDYWGQGTLVTVSS VL: EIVLTQSPGTLSLSPGERATLSCRASQSVSPHYLAWYQQKPGQAPRLLIYGASSRATGIPDRFSGSGSGTDFTLTISRLEPEDFAVYYCQHYPYPPSFTFGQGTKVEIK | 0.59 | 5.43 | 0.00213 | 3.58e+06 | 1.28 | 3.61 | 0.0032 | 2.51e+06
L3.PY/L1.FF/H3.AE (antibody, V domains shown, IgG) VH: EVQLLESGGGLVQPGGSLRLSCAASGFTFGSYAMTWVRQAPGKGLEWVSAISGSGGNTFYADSVKGRFTISRDNSKNTLYLQMNSLRAEDTAVYYCARVSPIAAEMDYWGQGTLVTVSS VL: EIVLTQSPGTLSLSPGERATLSCRASQSVSSFFLAWYQQKPGQAPRLLIYGASSRATGIPDRFSGSGSGTDFTLTISRLEPEDFAVYYCQHYPYPPSFTFGQGTKVEIK | 0.69 | 4.39 | 0.00263 | 3.82e+06 | 1.76 | 2.31 | 0.00501 | 2.85e+06
L3.PY/L1.FF/H3.TAQ (antibody, V domains shown, IgG) VH: EVQLLESGGGLVQPGGSLRLSCAASGFTFGSYAMTWVRQAPGKGLEWVSAISGSGGNTFYADSVKGRFTISRDNSKNTLYLQMNSLRAEDTAVYYCTRVSPIAAQMDYWGQGTLVTVSS VL: EIVLTQSPGTLSLSPGERATLSCRASQSVSSFFLAWYQQKPGQAPRLLIYGASSRATGIPDRFSGSGSGTDFTLTISRLEPEDFAVYYCQHYPYPPSFTFGQGTKVEIK | 0.54 | 6.12 | 0.00189 | 3.52e+06 | 1.62 | 3.07 | 0.00376 | 2.32e+06
L3.PY/L1.PH/H2.QR (antibody, V domains shown, IgG) VH: EVQLLESGGGLVQPGGSLRLSCAASGFTFGSYAMTWVRQAPGKGLEWVSAISGSGGNTFYADQRKGRFTISRDNSKNTLYLQMNSLRAEDTAVYYCARVSPIASGMDYWGQGTLVTVSS VL: EIVLTQSPGTLSLSPGERATLSCRASQSVSPHYLAWYQQKPGQAPRLLIYGASSRATGIPDRFSGSGSGTDFTLTISRLEPEDFAVYYCQHYPYPPSFTFGQGTKVEIK | 0.64 | 4.89 | 0.00236 | 3.69e+06 | 1.8 | 2.65 | 0.00436 | 2.42e+06
L3.PY/L1.FF/H2.QL (antibody, V domains shown, IgG) VH: EVQLLESGGGLVQPGGSLRLSCAASGFTFGSYAMTWVRQAPGKGLEWVSAISGSGGNTFYADQLKGRFTISRDNSKNTLYLQMNSLRAEDTAVYYCARVSPIASGMDYWGQGTLVTVSS VL: EIVLTQSPGTLSLSPGERATLSCRASQSVSSFFLAWYQQKPGQAPRLLIYGASSRATGIPDRFSGSGSGTDFTLTISRLEPEDFAVYYCQHYPYPPSFTFGQGTKVEIK | 0.4 | 8.28 | 0.0014 | 3.48e+06 | 1.91 | 2.57 | 0.00449 | 2.36e+06
L3.PY/L1.PH/H3.AE (antibody, V domains shown, IgG) VH: EVQLLESGGGLVQPGGSLRLSCAASGFTFGSYAMTWVRQAPGKGLEWVSAISGSGGNTFYADSVKGRFTISRDNSKNTLYLQMNSLRAEDTAVYYCARVSPIAAEMDYWGQGTLVTVSS VL: EIVLTQSPGTLSLSPGERATLSCRASQSVSPHYLAWYQQKPGQAPRLLIYGASSRATGIPDRFSGSGSGTDFTLTISRLEPEDFAVYYCQHYPYPPSFTFGQGTKVEIK | 0.36 | 8.61 | 0.00134 | 3.68e+06 | 0.77 | 5.72 | 0.00202 | 2.61e+06
L3.PY/L1.FF/H2.QR (antibody, V domains shown, IgG) VH: EVQLLESGGGLVQPGGSLRLSCAASGFTFGSYAMTWVRQAPGKGLEWVSAISGSGGNTFYADQRKGRFTISRDNSKNTLYLQMNSLRAEDTAVYYCARVSPIASGMDYWGQGTLVTVSS VL: EIVLTQSPGTLSLSPGERATLSCRASQSVSSFFLAWYQQKPGQAPRLLIYGASSRATGIPDRFSGSGSGTDFTLTISRLEPEDFAVYYCQHYPYPPSFTFGQGTKVEIK | 0.51 | 6.54 | 0.00177 | 3.47e+06 | 1.65 | 2.75 | 0.00421 | 2.55e+06
L3.PY/L1.FF/H2.DY (antibody, V domains shown, IgG) VH: EVQLLESGGGLVQPGGSLRLSCAASGFTFGSYAMTWVRQAPGKGLEWVSAIDYSGGNTFYADSVKGRFTISRDNSKNTLYLQMNSLRAEDTAVYYCARVSPIASGMDYWGQGTLVTVSS VL: EIVLTQSPGTLSLSPGERATLSCRASQSVSSFFLAWYQQKPGQAPRLLIYGASSRATGIPDRFSGSGSGTDFTLTISRLEPEDFAVYYCQHYPYPPSFTFGQGTKVEIK | 0.65 | 4.27 | 0.00271 | 4.14e+06 | 1.88 | 2.31 | 0.005 | 2.66e+06
L3.PY/L1.FF/H2.YQ (antibody, V domains shown, IgG) VH: EVQLLESGGGLVQPGGSLRLSCAASGFTFGSYAMTWVRQAPGKGLEWVSAISYQGGNTFYADSVKGRFTISRDNSKNTLYLQMNSLRAEDTAVYYCARVSPIASGMDYWGQGTLVTVSS VL: EIVLTQSPGTLSLSPGERATLSCRASQSVSSFFLAWYQQKPGQAPRLLIYGASSRATGIPDRFSGSGSGTDFTLTISRLEPEDFAVYYCQHYPYPPSFTFGQGTKVEIK | 0.46 | 7.61 | 0.00152 | 3.32e+06 | 1.49 | 3.55 | 0.00326 | 2.19e+06
